Results on 167 variants are retold here after the RNAGym collection of RNA variant scans (doi:10.7554/elife.90254).

First the molecules themselves.
B1: OR4K15 (parent)
chain: GUUAACGGUCAUAGGCCAUGGAAACUAGGAGCACCAUUUCGCUGCCAGUGAAGAAAUGAACAAAGAAAAUCUGGGCCAGGCAGGCAUCAAAAGAAAUAGUCUUGCGCUCAACCAGAAAGUCUGUAAUCAUUUUAAGGGUA

The variants in this data set derive from B1. In words: self-cleavage, relative activity (ratio to wild type); higher = more cleavage; in vitro, sequencing; the parent is a self-cleaving ribozyme.
As to C61G A110G, the self-cleavage worked out at 0.41.

For U9A A135U, the self-cleavage amounted to 1.

On to A54G U103A, for which the self-cleavage was 0.48.

As to G44A A51G, the self-cleavage stood at 2.19.

Turning to A18U G74A, the self-cleavage was determined as 0.22.

As to U19C U100A, the self-cleavage was 0.71.

A62G U127A: the self-cleavage came out at 1.79. In the case of A23U A59G it was 2.4; in that of U57A U97C, 1.78; in that of U108C A111C, 0.01. For C88U U139A, the self-cleavage worked out at 1.67. Turning to A18G U102C, the self-cleavage turned out to be 1.64.

Regarding A4C A24G, the self-cleavage came out at 0.75. The value for A4G A33G was 1.14; that for C16G A95G was 1.06; that for U12C U39C was 1.21. In the case of U70A U120C it was 0.41. The value for A129G A140G was 1.24; that for U43A A78G was 0.14; that for A54U A92G was 1.54. With G31U U120C, the self-cleavage was 1.21. In the case of G53A, the self-cleavage is 1.21. With G31A A90G, the self-cleavage is 1.8. The value for A66U U127C was 0.58; that for U57C U133C was 1.02. The value for U12A A18G was 1.65. In the case of A52U C113U it was 0.06; in that of U43A A98G, 1.07.

C81G: the self-cleavage came to 0.2. In the case of A62C G83A it was 2.18; in that of C61U A78U, 0.43; in that of A114G G115U, 0.02. The value for A55G G84A was 2.46. The value for A30G A64U was 0.3. On to A92G U102C, for which the self-cleavage was 1.8.

Take A30G A62G: the self-cleavage amounted to 1.07. In the case of G20U A33U it was 0.94; in that of A13U A66G, 1.49. In the case of U12C A56G it was 0.93; in that of U38C G41U, 1.46. A5G U130C: the self-cleavage turned out to be 1.01. In the case of U57A A98U it was 1.47; in that of A86G U130C, 1.2. In the case of G20A A60U it was 1.92. The value for A55G G137A was 1.82; that for C40A was 1.83. On to A11U A82U, for which the self-cleavage worked out at 0.31. The value for U87A U130C was 1.36; that for A36G A63U was 1.91; that for A56G A91U was 1.21.

For the variant A33U U43C, the self-cleavage was determined as 0.26. Regarding A56G U87C, the self-cleavage came to 0.74. In the case of A59G U132G it was 1.41; in that of C17U A30G, 1.03. The value for A11G A89G was 0.59; that for A51U A82C was 0.24.

Turning to A27G U43C, the self-cleavage is 1.41.

As to A68G A116G, the self-cleavage came out at 0.8. As to A69U A86G, the self-cleavage is 2.37. The value for U12A U72A was 0.36; that for A30G U70C was 0.75; that for A27U A56G was 1.21. In the case of U26C A116U it was 0.18; in that of U2G U57C, 1.13. In the case of G53U U127A it was 1.92.

Turning to A22G G137A, the self-cleavage was 1.63. The value for A52G A96U was 1.86; that for U3C A118G was 0.54. The value for A47U U102C was 1.92; that for A52G A94G was 1.99. In the case of A13U A22G it was 1.38; in that of U122C G137C, 1.67; in that of G80U G123A, 0.14. For the variant U57G A129G, the self-cleavage came out at 1.15.

Consider A11G U49G, for which the self-cleavage was determined as 1.21. In the case of A51U A96G it was 1.32; in that of A96G C109A, 0.37.

On to A78U C88U, for which the self-cleavage turned out to be 0.42.

Regarding U37C A92G, the self-cleavage was found to be 0.77. The value for U12C U100G was 1.34; that for U72C U139C was 0.46; that for A11U A13U was 1.5. The value for A51C A92U was 0.57; that for U49C A69G was 1.2; that for A18U U37C was 0.8. In the case of A64U U102C, the self-cleavage was 2.23.

For the variant A64U U102A, the self-cleavage is 1.07. In the case of A33G A51C it was 0.52; in that of A23G A55U, 0.86. The value for A86U A89G was 2.16; that for U37C A94G was 1.76. In the case of A18G U72C it was 0.38; in that of A59G U102C, 1.5. On to A4G C42U, for which the self-cleavage amounted to 0.81. Turning to A66U G80A, the self-cleavage was determined as 0.05.

For the variant A114G A134U, the self-cleavage was 0.23. In the case of A55U C109U it was 0.31.

With G75A C109U, the self-cleavage is 0.09.

For A18U U139C, the self-cleavage is 1.45.

Regarding U39C A116C, the self-cleavage was 0.07.

As for U9A A116U, the self-cleavage was determined as 0.18. In the case of C10U A125G it was 0.61.

For the variant A36G U102C, the self-cleavage is 1.88. A22G C25A: the self-cleavage turned out to be 0.35.

U49A U103C: the self-cleavage is 0.93.

Take U19A A59U: the self-cleavage stood at 1.72. Turning to G41A A63G, the self-cleavage stood at 1.4. With U9C G104A, the self-cleavage was determined as 0.06. For the variant A59G A111G, the self-cleavage came out at 0.02.

Regarding G48A U70C, the self-cleavage was 0.31. In the case of G31C A90G it was 1.73; in that of A5G A91G, 0.47; in that of A27U G44U, 2.13. In the case of U122C A135C it was 0.54. The value for A69G U72C was 0.3. With A96G U108G, the self-cleavage is 0.03.

For U122A U124A, the self-cleavage worked out at 0.14. In the case of A13U A51G, the self-cleavage came out at 1.53.

For A135C, the self-cleavage was 0.69. The value for A78C U100A was 0.11; that for U120C U131A was 0.52; that for U57C A116G was 0.33. With A36C A86G, the self-cleavage stood at 1.24. In the case of G50U A63G it was 0.92; in that of C32U A118G, 1.44. As to U108A A114G, the self-cleavage came out at 0.02. The value for U3A A125G was 0.39; that for U3A A116G was 0.32; that for A4G A22G was 1.17. The value for A36U A82G was 0.39. Consider A114U U122A, for which the self-cleavage came to 0.04. A30U C101A: the self-cleavage came to 0.25. With A33C A135G, the self-cleavage amounted to 1.64.

Consider A59G U87A, for which the self-cleavage came to 1.11.

On to C113U U130C, for which the self-cleavage was found to be 0.04. Consider A62U U132C, for which the self-cleavage worked out at 1.48. C34U U124A: the self-cleavage was determined as 0.3. The value for U39C A95U was 1.78; that for U72A U132C was 0.23; that for U9A A30U was 1.22. The value for G48A A55G was 1.61; that for C40A U97C was 1.43. The value for A63G U72C was 0.27; that for U70A A116U was 0.79; that for U100C A110G was 0.32. In the case of A67U A82G, the self-cleavage amounted to 0.9.

For the variant U87C A114U, the self-cleavage came to 0.09.

Turning to A68G U70A, the self-cleavage was found to be 1.12.

On to A30C A55G, for which the self-cleavage came to 1.44. Regarding A52U A90G, the self-cleavage was determined as 0.38. In the case of A18G A59G it was 1.19; in that of A56G U57C, 1.27; in that of A126G U130G, 1.19.

Regarding A55G A116G, the self-cleavage was determined as 0.63. In the case of C105U A118G it was 0.04. The value for A52G U70A was 0.45; that for A66G U131C was 1.04; that for C40A A114G was 0.11. The value for A114U A118G was 0.05; that for U57A U103C was 0.22. In the case of A56C A82G, the self-cleavage stood at 0.56. U43C G83U: the self-cleavage was 0.67.

U12G A24G: the self-cleavage stood at 1.1. For A47U A63G, the self-cleavage was 0.8. In the case of A55G A118G it was 1.23; in that of U49G A98G, 0.14; in that of A94G A116G, 0.39.
